Results published in the supplement of paper PMC10567573.

B1: RTN1 (parent)
chain: VVAYLALAALSATISFRIYKSVLQ

Variants of: B1
Assay: protein stability index of a GFP-peptide fusion (GPS, HEK-293T) (PSI 1-6); higher = more stable
Conditions: c terminus: a fixed tail appended
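Note: lentivirally expressed fusions sorted by FACS into six bins by GFP to DsRed ratio, PSI derived from sequencing read proportions per bin multiplied by bin number.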

| Variant | protein stability index |
| --- | --- |
| VVAYLALAALSAMISFRIYKSVLQ | 1.58 |
| VVAYLALAALSAGISFRIYKSVLQ | 1.32 |
| VVAYLALAALSACISFRIYKSVLQ | 1.87 |
| VVAYLALAALSARISFRIYKSVLQ | 2.82 |
| VVAYLALAALSAEISFRIYKSVLQ | 3.33 |
| VVAYLALAALSAFISFRIYKSVLQ | 2.43 |
| VVAYLALAALSAIISFRIYKSVLQ | 2.86 |
| VVAYLALAALSAPISFRIYKSVLQ | 2.21 |
| VVAYLALAALSAWISFRIYKSVLQ | 2.05 |
| VVAYLALAALSAYISFRIYKSVLQ | 1.86 |
| VVAYLALAALSANISFRIYKSVLQ | 2.54 |
| VVAYLALAALSAVISFRIYKSVLQ | 2.39 |
| VVAYLALAALSAKISFRIYKSVLQ | 2.77 |
| VVAYLALAALSAAISFRIYKSVLQ | 1.2 |
| VVAYLALAALSAHISFRIYKSVLQ | 2.61 |
| VVAYLALAALSHTISFRIYKSVLQ | 3.12 |
| VVAYLALAALSFTISFRIYKSVLQ | 2.85 |
| VVAYLALAALSQTISFRIYKSVLQ | 2.67 |
| VVAYLALAALSYTISFRIYKSVLQ | 2.39 |
| VVAYLALAALSTTISFRIYKSVLQ | 1.95 |
| VVAYLALAALSWTISFRIYKSVLQ | 3.1 |
| VVAYLALAALSVTISFRIYKSVLQ | 3.42 |
| VVAYLALAALSLTISFRIYKSVLQ | 3.9 |
| VVAYLALAALSETISFRIYKSVLQ | 2.05 |

| Variant | protein stability index |
| --- | --- |
| VVAYLALAALSCTISFRIYKSVLQ | 2.45 |
| VVAYLALAALSATISFRIYKSELQ | 3.42 |
| VVAYLALAALSATISFRIYKSFLQ | 3.99 |
| VVAYLALAALSATISFRIYKSDLQ | 3.13 |
| VVAYLALAALSATISFRIYKSCLQ | 3.58 |
| VVAYLALAALSATISFRIYKSALQ | 3.36 |
| VVAYLALAALSATMSFRIYKSVLQ | 3.4 |
| VVAYLALAALSATTSFRIYKSVLQ | 2.12 |
| VVAYLALAALSATRSFRIYKSVLQ | 3.01 |
| VVAYLALAALSATGSFRIYKSVLQ | 2.49 |
| VVAYLALAALSATHSFRIYKSVLQ | 2.72 |
| VVAYLALAALSATASFRIYKSVLQ | 2.8 |
| VVAYLALAALSATKSFRIYKSVLQ | 1.96 |
| VVAYLALAALSATLSFRIYKSVLQ | 1.7 |
| VVAYLALAALSATESFRIYKSVLQ | 3.06 |
| VVAYLALAALSATNSFRIYKSVLQ | 1.02 |
| VVAYLALAAMSATISFRIYKSVLQ | 3.33 |
| VVAYLALAAWSATISFRIYKSVLQ | 2.44 |
| VVAYLALAAKSATISFRIYKSVLQ | 2.42 |
| VVAYLALAAYSATISFRIYKSVLQ | 2.83 |
| VVAYLALAAESATISFRIYKSVLQ | 2.17 |
| VVAYLALAAPSATISFRIYKSVLQ | 2.69 |
| VVAYLALAARSATISFRIYKSVLQ | 1.98 |
| VVAYLALAAHSATISFRIYKSVLQ | 2.74 |

| Variant | protein stability index |
| --- | --- |
| VVAYLALAAFSATISFRIYKSVLQ | 2.31 |
| VVAYLALAAQSATISFRIYKSVLQ | 2.41 |
| VVAYLALAAASATISFRIYKSVLQ | 2.38 |
| VVAYLALAAGSATISFRIYKSVLQ | 3.08 |
| VVAYLALAANSATISFRIYKSVLQ | 3.25 |
| VVAYLALAATSATISFRIYKSVLQ | 2.51 |
| VVAYLALAACSATISFRIYKSVLQ | 2.2 |
| VVAYLALSALSATISFRIYKSVLQ | 1.95 |
| VVAYLALTALSATISFRIYKSVLQ | 2.32 |
| VVAYLALHALSATISFRIYKSVLQ | 1.75 |
| VVAYLALFALSATISFRIYKSVLQ | 1.68 |
| VVAYLALQALSATISFRIYKSVLQ | 4.3 |
| VVAYLALRALSATISFRIYKSVLQ | 2.18 |
| VVAYLALYALSATISFRIYKSVLQ | 2.76 |
| VVAYLALIALSATISFRIYKSVLQ | 3.23 |
| VVAYLALNALSATISFRIYKSVLQ | 1.69 |
| VVAYLALPALSATISFRIYKSVLQ | 3.27 |
| VVAYLALWALSATISFRIYKSVLQ | 3.8 |
| VVAYLALKALSATISFRIYKSVLQ | 2.2 |
| VVAYLALEALSATISFRIYKSVLQ | 2.46 |
| VVAYLALLALSATISFRIYKSVLQ | 2.31 |
| VVAYLALDALSATISFRIYKSVLQ | 2.28 |
| VVAYLALMALSATISFRIYKSVLQ | 4.1 |
| VVAYLALAALSATISFRISKSVLQ | 2.1 |

| Variant | protein stability index |
| --- | --- |
| VVAYLALAALSATISFRIPKSVLQ | 2.41 |
| VVAYLALAALSATISFRIHKSVLQ | 2.75 |
| VVAYLALAALSATISFRIEKSVLQ | 4.55 |
| VVAYLALAALSATISFRIAKSVLQ | 2.51 |
| VVAYLALAALSATISFRICKSVLQ | 2.46 |
| VVAYLALAALSATISFRILKSVLQ | 1.46 |
| VVAYLALAALSATISFRIFKSVLQ | 1.46 |
| VVAYLALAALSATISFRIRKSVLQ | 3.4 |
| VVAYLALAALSATISFRIQKSVLQ | 3.66 |
| VVAYLALAALSATISFRIMKSVLQ | 2.3 |
| VVAYLALAALSATISFRIVKSVLQ | 2.12 |
| VVAYLALAALSATISFRIIKSVLQ | 2.51 |
| VVAYLALAALSATISFRIWKSVLQ | 1.49 |
| VVAYLALAALSATISERIYKSVLQ | 1.76 |
| VVAYLALAALSATISVRIYKSVLQ | 2.15 |
| VVAYLALAALSATISNRIYKSVLQ | 2.28 |
| VVAYLALAALSATISQRIYKSVLQ | 3 |
| VVAYLALAALSATISKRIYKSVLQ | 1.86 |
| VVAYLALAALSATISHRIYKSVLQ | 3.82 |
| VVAYLALAALSATISDRIYKSVLQ | 2.94 |
| VVAYLALAALSATISYRIYKSVLQ | 3.52 |
| VVAYLALAALSATISSRIYKSVLQ | 2.99 |
